Data taken from the Immune Epitope Database (IEDB).

Tests used:
Assay in all cases: IEDB peptide-MHC binding, purified MHC/competitive/radioactivity; ≥ and ≤ were set here for values at or beyond the usual limits of such assays
Conditions in all cases: source organism: Bordetella pertussis
HLA-B*57:01 = target: HLA-B*57:01
HLA-B*07:02 = target: HLA-B*07:02
HLA-B*44:03 = target: HLA-B*44:03
HLA-B*53:01 = target: HLA-B*53:01
HLA-A*02:01 = target: HLA-A*02:01
HLA-B*35:01 = target: HLA-B*35:01

## YLRQITPGW
HLA-B*57:01
  IC50: 1.54 µM

## FVRDGQSVI
HLA-B*07:02
  IC50: 5.56 µM

## AEVKVGYRA
HLA-B*44:03
  IC50: 2.36 µM

## EPQAELAVF
HLA-B*53:01
  IC50: 4.52 µM

## GKLPKPVTV
HLA-A*02:01
  IC50: 69.4 µM

## KDYRDKDGG
HLA-B*07:02
  IC50: 69.6 µM

## KPAPTAPPM
HLA-B*35:01
  IC50: 0.019 µM

## ESYSESHNF
HLA-B*53:01
  IC50: 6.27 µM

## AEHGEVSIQ
HLA-B*44:03
  IC50: 2.88 µM

## PPRPVAAQV
HLA-B*07:02
  IC50: 17.8 µM

## DATFETYAL
HLA-B*53:01
  IC50: 4.9 µM

## GAVPGGAVP
HLA-B*53:01
  IC50: 69.9 µM

## GGVPGGAVP
HLA-B*53:01
  IC50: 26.7 µM

## KPAPQPGPQ
HLA-B*07:02
  IC50: 31.7 µM

## SESHNFHAS
HLA-B*44:03
  IC50: 32.7 µM

## VALASQARW
HLA-B*57:01
  IC50: 0.188 µM

## FAILSSTTE
HLA-B*35:01
  IC50: 69.9 µM
HLA-B*53:01
  IC50: 47.1 µM

## LPVRGVALV
HLA-B*35:01
  IC50: 69.9 µM
HLA-B*53:01
  IC50: ≥ 78.2 µM

## KEAATIVAA
HLA-B*44:03
  IC50: 15 µM
